According to article PMC7895464 (Journal of molecular biology, 2020):
Where two headings read alike, the source gives them in different places.

How the values were obtained:
[1] = target: ClpS*^fl (fluorescein-labelled variant of ClpS containing one cysteine) (E. coli) (UniProt P0A8Q6); assay: fluorescence polarisation
ClpA [2] = target: T1, ClpA (E. coli, UniProt P0ABH9 1-758)
T1 sequence (looked up): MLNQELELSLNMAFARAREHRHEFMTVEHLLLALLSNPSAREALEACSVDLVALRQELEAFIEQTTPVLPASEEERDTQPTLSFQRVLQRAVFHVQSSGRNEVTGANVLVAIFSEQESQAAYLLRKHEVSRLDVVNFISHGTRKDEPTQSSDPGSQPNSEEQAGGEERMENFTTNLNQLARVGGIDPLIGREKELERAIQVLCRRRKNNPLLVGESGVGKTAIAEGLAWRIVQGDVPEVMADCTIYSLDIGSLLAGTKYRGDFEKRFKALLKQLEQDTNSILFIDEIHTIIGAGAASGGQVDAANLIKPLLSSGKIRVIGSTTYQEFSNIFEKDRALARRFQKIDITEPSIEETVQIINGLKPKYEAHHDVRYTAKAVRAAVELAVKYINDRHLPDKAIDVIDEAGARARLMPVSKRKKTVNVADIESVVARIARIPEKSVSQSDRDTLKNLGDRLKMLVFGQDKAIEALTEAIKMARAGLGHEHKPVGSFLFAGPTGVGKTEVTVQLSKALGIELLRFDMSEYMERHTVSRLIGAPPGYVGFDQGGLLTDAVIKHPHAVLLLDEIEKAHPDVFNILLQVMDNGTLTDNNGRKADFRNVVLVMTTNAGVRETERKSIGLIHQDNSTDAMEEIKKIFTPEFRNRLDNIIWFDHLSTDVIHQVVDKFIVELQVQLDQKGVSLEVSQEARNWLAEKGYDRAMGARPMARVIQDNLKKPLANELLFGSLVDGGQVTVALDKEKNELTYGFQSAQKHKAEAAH

ClpA [3] = target: T1, ClpA; assay: fluorescence polarisation
[4] = target: T2, ClpA-ClpS complex (ClpAS; printed as ClpAPS in the text) (E. coli, UniProt P0ABH9 1-758; P0A8Q6 2-106); assay: fluorescence polarisation
T2 sequence 1: T1 sequence (looked up)
T2 sequence 2: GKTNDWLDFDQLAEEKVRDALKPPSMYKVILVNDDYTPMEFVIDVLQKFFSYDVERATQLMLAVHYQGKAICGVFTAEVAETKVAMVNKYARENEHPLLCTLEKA

ClpA [5] = target: T1, ClpA; assay: fluorescence polarisation; remark: listed apart in the source

B1: ClpA (enzyme)
chain: T1 sequence (looked up)
[1]
  Kd: 160 nM

B2: ClpS^ΔN17 (domain or fragment, E. coli, UniProt P0A8Q6 18-106, looked up)
chain: VRDALKPPSMYKVILVNDDYTPMEFVIDVLQKFFSYDVERATQLMLAVHYQGKAICGVFTAEVAETKVAMVNKYARENEHPLLCTLEKA
ClpA [2]
  Kd: ~160 nM

B3: λ*^fl-ssrA (fluorescein-labelled ssrA-tagged DNA-binding domain of λ repressor, λ(1-93)^A21C-ssrA) (domain or fragment, bacteriophage λ | E. coli)
chain: MSTKKKPLTQEQLEDARRLKCIYEKKKNELGLSQESVADKMGMGQSGVGALFNGINALNAYNAALLAKILKVSVEEFSPSIAREIYEMYEAVSAANDENYALAA
modifications: fluorescein (fluorescein-5-maleimide) on the single cysteine
ClpA [3]
  Kd: 740 nM
[4]
  Kd: ~8000 nM

B4: ClpS (natural protein, E. coli)
chain: T2 sequence 2
ClpA [5]
  binding result: binds
